Patent US20040162413A1 (published 2004)

Key:
CD40-Ig fusion protein [1] = target: T1, CD40-Ig fusion protein (UniProt P25942 21-193); test: SPR (BIAcore), CD40-Ig immobilised, purified Fab in solution
T1 construct: also called CD40-Ig antigen; CD40 receptor; not shown: Ig part, not described; in the ELISA and capture lift it is detected with goat anti-mouse IgG2b conjugate

[2] = target: T2, human von Willebrand Factor (human, UniProt P04275 764-2813); test: ELISA: human vWF captured on goat anti-human vWF coated plates, Fab dilutions, goat anti-human kappa alkaline phosphatase, O.D. 560 after 30 min
T2 construct: In the ELISA captured on plates by goat anti-human vWF; biotinylated in the plaque lift; also called vWF; human vWF

CD40-Ig fusion protein [3] = target: T1, CD40-Ig fusion protein; test: SPR (BIAcore), CD40-Ig immobilised

T1 sequence (P25942 21-193): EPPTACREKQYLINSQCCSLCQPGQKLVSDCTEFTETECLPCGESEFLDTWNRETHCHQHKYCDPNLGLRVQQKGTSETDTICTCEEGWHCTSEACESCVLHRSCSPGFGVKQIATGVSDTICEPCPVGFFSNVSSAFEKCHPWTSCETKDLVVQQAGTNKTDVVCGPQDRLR

Binder	Kd (CD40-Ig fusion protein [1]) [nM]	EC50 (read off the curve) [2] [µg/mL]	fold lower affinity against CW43 (CD40-Ig fusion protein [3]) [fold]
chimeric anti-CD40 Fab (variable regions of murine mAb 40.2.220) (Fab, V domains shown, Fab expressed in bacteria from vector M13IX104CS (human kappa and gamma 1 constant regions, terminal cysteines replaced by serine); purified Fabs carry a six-histidine tag at the C-terminus of the H chain; also called chimeric Fab; chimeric CD40) VH: QIQLVQSGPELKKPGETVRISCKASGYAFTTTGMQWVQEMPGKGLKWIGWINTHSGVPKYVEDFKGRFAFSLETSANTAYLQISNLKNEDTATYFCVRSGNGNYDLAYFAYWGQGTLVTVSA VL: DIVLTQSPATLSVTPGDRVSLSCRASQSISDYLHWYQQKSHESPRLLIKYASHSISGIPSRFSGSGSGSDFTLSINSVEPEDVGIYYCQHGHSFPRTFGGGTKLEIK	48.3		
anti-vWF combinatorial library clone C1 Fab (Fab, V domains shown, Fab with human CL and CH1) VH: EVQLVESGGGLVQPGGSLRLSCAASGFSLGDYGVDWVRQAPGKGLEWVGMIWPDGSTDYNSALQSRFTISRDDSKNSLYLQMNSLKTEDTAVYYCARDPADYGNYNYALDYWGQGTTVTVS VL: DIQMTQSPSSLSASVGDRVTITCSASQDINDYLNWYQQKPGKAPKLLIYNTSSLHSGVPSRFSGSGSGTDFTLTISSLQPEDFATYYCQQYEDLPWTFGGGTKVEIK		~0.02	
anti-vWF combinatorial library clone C4 Fab (Fab, V domains shown, Fab with human CL and CH1) VH: EVQLVESGGGLVQPGGSLRLSCAASGFSLGDYGVDWVRQAPGKGLEWVGMIWGDGSVDVNSALQSRFTISRDDSKNSLYLQMNSLKTEDTAVYYCARDPADYGNYNYALDYWGQGTTVTVS VL: DIQMTQSPSSLSASVGDRVTITCSASQDINDYLNWYQQKPGKAPKLLIYGTSSLHSGVPSRFSGSGSGTDFTLTISSLQPEDFATYYCQQYEDLPWTFGGGTKVEIK		~0.02	
NMC-4 antibody (parental/donor antibody) (antibody, V domains shown, also called parental/donor NMC-4 antibody) VH: VQLLESGPGLVAPSQSLSITCTVSGFSLTDYGVDWVRQPPGKGLEWLGMIWGDGSTDYNSALKSRLSITKDNSKSQVFLKMNSLQTDDTARYYCVRDPADYGNYDYALDYWGQGTSVTVS VL: SSLSASLGDRVTISCSASQDINKYLNWYQQKPDGAVKLLIFYTSSLHSGVPSRFSGSGSGTDYSLTISNLEPEDIATYYCQQYEKLPWTFGGGTKLEVK		~0.03	
Y49K, derivative of clone CW43 made by site-directed mutagenesis (anti-CD40 Fab) (Fab, V domains shown, Fab, human constant regions; framework identical to clone 1H11; also called clone Y49K) VH: QVQLVQSGPELKKPGASVKVSCKASGYAFTTTGMQWVRQAPGQGLEWMGWINTHSGVPKYVEDFKGRFVFSLDTSVSTAYLQISSLKAEDTAVYFCARSGNGNYDLAYFRYWGQGTLVTVSS VL: EIVLTQSPATLSLSPGERATLSCRASQSISDYLHWYQQKPGQAPRLLIKYASHSISGIPARFSGSGSGTDFTLTISSLEPEDFAVYYCQHGHSFPRTFGGGTKVEIK	53.4		5
